# Experimental data taken from US7332318B2, “Calcium-independent phospholipases A2, genes thereof and promoter of the same” (Japan Science and Technology Agency, priority 2001, dated 2008).
# What was measured:
# [1] = tested on: nerve stem cells; experiment: Expression of KIDS cPLA2 in nerve stem cells after stimulation; format: cell-based; settings: kainic acid 10 μM, probe P19-P27, FIG. 14
# Protocol: Then expression of KIDS cPLA 2 of the present invention using nerve stem cells by means of stimulation by kainic acid (10 μM), by kainic acid and CNQX (10 μM KA and 20 μM CNQX) and by glutamic acid (50 μM) was investigated.
# The result is shown in FIG. 14 which is a picture as a substitute for a drawing. In FIG. 14, the probe used is P90-P27 of 252 bp (the said sequence is a sequence of a moiety which is common in the full-length cPLA2) in the upper column, P19-P27 of 290 bp (the said sequence contains a sequence specific to KIDS cPLA2 of the present invention) in the second column and G3 PDH and nestin in the lower two columns as controls.
# The lanes in FIG. 14 are control and stimulations by kainic acid (KA (10 μM)), by kainic acid and CNQX (KA (10 μM)+CNQX (20 μM)) and by glutamic acid (Glu (50 μM)) from the left side.
# [2] = tested on: KIDS cPLA2 mRNA in hippocampal dentate gyrus; experiment: In situ hybridization of brain slices after kainic acid stimulation; format: in vivo, Wister rat; settings: rat brain, riboprobe C, with or without kainic acid stimulation
# Protocol: Brain of Wister rat of 3 weeks age stimulated by kainic acid was fixed by 4% paraformaldehyde and then a frozen slice was prepared. Each of the radio-labeled riboprobes B, C and D was subjected to a hybridization reaction with the frozen slice and the labeled image of the slice from each probe was confirmed to be same. Then, frozen slice of the brain was prepared again using riboprobe C with or without a kainic acid stimulation and an expression pattern of KIDS cPLA2 mRNA was investigated.
# [3] = tested on: KIDS cPLA2 protein in hippocampal dentate gyrus; experiment: Immunohistochemical dyeing of brain slices after kainic acid stimulation; format: in vivo, cPLA2a knockout mouse, C57/Black 6J mouse, Wister rat; settings: anti-KIDS cPLA2 stump antibody
# Protocol: Brains of cPLA2a knockout mouse and C57/Black 6J mouse of 6-10 weeks age and Wister rat of 3 weeks age stimulated by kainic acid were fixed with 4% paraformaldehyde and then frozen slices were prepared. Immunoreaction of an anti-KIDS cPLA2-specific stump antibody with the brain slice was carried out overnight at 4° C. and expression of KIDS cPLA2 protein was confirmed by a secondary antibody labeled with gold colloid.
# [4] = Enzymatic (phospholipase A2) activity of KIDS cPLA2 and cPLA2α on radiolabelled PC substrates; format: biochemical; settings: difference from the control
# Description: Then enzymatic activity of cPLA2α and KIDS cPLA2 of the present invention were investigated. There were used 1-Pam-2-[^14C] arachidonoyl-PC (black dots (●) in FIG. 7), 1-Pam-2-[^14C]Iinoleoyl-PC (black triangles (▴) in FIG. 7), 1-Pam-2-[^14C]oleoyl-PC (black squares (▪) in FIG. 7) and 1-Pam-2-[^14C]palmitoyl-PC (asterisks (*) in FIG. 7) as the substrates for testing the enzymatic activity of each of them. In FIG. 7, the left side is that for KIDS cPLA2 of the present invention while the right side is that for cPLA2α.
# Incidentally, the phospholipase A2 activity is given in terms of the difference from the control.
# [5] = Calcium dependency of enzymatic activity (EDTA-Ca); format: biochemical; settings: substrate 1-Pam-2-[^14C]arachidonoyl-PC
# Description: Then, calcium dependency of cPLA2α and KIDS cPLA2 of the present invention on enzymatic activity was investigated using 1-Pam-2-[^14C]arachidonoyl-PC as a substrate. EDTA-Ca was used as a calcium source.
# The solid lines in FIG. 8 are the case of KIDS cPLA of the present invention while the broken lines therein are the case of cPLA2α. In each of them, the black dots (●) are the data in the absence of EDTA-Ca while the open circles (◯) are those in the presence of EDTA-Ca.
# It is noted that, in the case of KIDS cPLA2 of the present invention, an activity of around 40% is maintained even […] while, in the case of cPLA2α, the activity is reduced to an extent of around 10-15% […].
Phospholipase A2 Activity ([4]; substrate 1-Pam-2-[^14C]arachidonoyl-PC),Phospholipase A2 Activity ([4]; substrate 1-Pam-2-[^14C]linoleoyl-PC),Phospholipase A2 Activity ([4]; substrate 1-Pam-2-[^14C]oleoyl-PC),Phospholipase A2 Activity ([4]; substrate 1-Pam-2-[^14C]palmitoyl-PC),Molecule,Expression of KIDS cPLA2 [1],Expression pattern of KIDS cPLA2 mRNA [2],Expression of KIDS cPLA2 protein [3],"Activity maintained in the presence of calcium (relative ratio) ([5]; EDTA-Ca, FIG. 9)","Change of enzymatic activity by the presence of calcium ([5]; with and without EDTA-Ca, FIG. 8)"
,,,,C=C(C)[C@H]1CN[C@H](C(=O)O)[C@H]1CC(=O)O [kainic acid],specific expression of KIDS cPLA2 of the present invention was confirmed,drastically induced in the hippocampal dentate gyrus,drastically induced in the hippocampal dentate gyrus,,
24.4 ± 1.4 pmol/min,11.9 ± 1.8 pmol/min,9.1 ± 1.1 pmol/min,9.8 ± 1.7 pmol/min,"cPLA2α: cytosolic phospholipase A2 (cPLA2α) of 85 kDa, the conventional full-length enzyme (protein, UniProt P47712 1-749, looked up, full-length, cytosolic phospholipase A2 (cPLA2α) of 85 kDa, the conventional full-length enzyme) MSFIDPYQHIIVEHQYSHKFTVVVLRATKVTKGAFGDMLDTPDPYVELFISTTPDSRKRTRHFNNDINPVWNETFEFILDPNQENVLEITLMDANYVMDETLGTATFTVSSMKVGEKKEVPFIFNQVTEMVLEMSLEVCSCPDLRFSMALCDQEKTFRQQRKEHIRESMKKLLGPKNSEGLHSARDVPVVAILGSGGGFRAMVGFSGVMKALYESGILDCATYVAGLSGSTWYMSTLYSHPDFPEKGPEEINEELMKNVSHNPLLLLTPQKVKRYVESLWKKKSSGQPVTFTDIFGMLIGETLIHNRMNTTLSSLKEKVNTAQCPLPLFTCLHVKPDVSELMFADWVEFSPYEIGMAKYGTFMAPDLFGSKFFMGTVVKKYEENPLHFLMGVWGSAFSILFNRVLGVSGSQSRGSTMEEELENITTKHIVSNDSSDSDDESHEPKGTENEDAGSDYQSDNQASWIHRMIMALVSDSALFNTREGRAGKVHNFMLGLNLNTSYPLSPLSDFATQDSFDDDELDAAVADPDEFERIYEPLDVKSKKIHVVDSGLTFNLPYPLILRPQRGVDLIISFDFSARPSDSSPPFKELLLAEKWAKMNKLPFPKIDPYVFDREGLKECYVFKPKNPDMEKDCPTIIHFVLANINFRKYRAPGVPRETEEEKEIADFDIFDDPESPFSTFNFQYPNQAFKRLHDLMHFNTLNNIDVIKEAMVESIEYRRQNPSRCSVSLSNVEARRFFNKEFLSKPKA",,,,10-15%,sudden reduction in the activity by the presence of calcium
